Read-outs that look alike come from different tables or passages of the source. Where no end group is shown, it is not given here.
How the values were obtained:
urokinase (UK) [1] = molecular target: T1, urokinase (UK) (Homo sapiens, UniProt P00749); experiment: Ki of inhibitors against urokinase, fractional enzyme activity assay (Empie and Laskowski) with chromogenic substrate S-2288; assay type: biochemical; design: purchased Abbott Pharmaceuticals
Experimental: Fractional enzyme activities for each inhibitor-UK interaction of the above discussed inhibitors were determined by the assay method of Empie and Laskowski (Empie, M. W. et al., Biochem. 21:2274-2284 (1982)), as adapted from Green and Work (Green, N. M. et al., Biochem. J. 54:347-352 (1953)). The concentration of UK used for these reactions was 35 nM. The reactions were carried out in Buffer C. The concentration of the chromogenic substrate used with UK in these assays (S-2288, KabiGen) was […], which is one tenth of the Km of the substrate for UK. Km was determined by a Michaelis-Menten analysis, using a 100-fold range of substrate concentration in Buffer C, and determined to be 4×10^-4 M. Ki values were calculated as the slope of a plot of [I]o /(1-a) vs. 1/a ("a" represents residual enzyme activity) using a variation of the formulas derived by Henderson (Pratt, C. W. et al., Biochem. 26:2855-2863 (1987)). […] These five mutants include the four detailed above(88, 89, 80, AND 91), and also a mutant with arginine at the P1 site of OM3TKY (P1-Arg). […] "ND" means not determined.
Ki values for the wild-type and mutant inhibitors versus urokinase were also determined by non-linear regression of the following equation: [formula]
The non-linear regression was done using the program Enzfitter, by Robin Leatherbarrow. […] Enzyme and inhibitor concentrations used were determined as mentioned above.

urokinase (UK) [2] = molecular target: T1, urokinase (UK); details: from Turpeinen et al. (PSTI), Christensen et al. (PAI-2); serpin Ki not functionally comparable to reversible inhibitors; read-out: Ki (nM) against UK, values obtained from the literature; cited from earlier work

| Substance | Ki (urokinase (UK) [1]; non-linear regression with Enzfitter, read-out: Ki (nM), Ki VALUES OBTAINED BY NON-LINEAR REGRESSION FOR INHIBITORS AGAINST UK) | inhibitory activity against UK (urokinase (UK) [1]; statement on Table 5) | Ki (urokinase (UK) [2]) |
| --- | --- | --- | --- |
| P1-Arg: mutant with arginine at the P1 site of OM3TKY (VDCSEYPKPACTREYRPLCGSDNKTYGNKCNFCNAVVESNGTLTLSHFGKC) | 1790 ± 415 nM | virtually no inhibitory activity |  |
| PSTI: native Pancreatic Secretory Trypsin Inhibitor, a Kazal-type inhibitor from humans (DSLGREAKCYNELNGCTKIYDPVCGTDGNTYPNECVLCFENRKRQTSILIQKSGPC; ends and bridges not checked; cysteine pairing not given here; UniProt P00995 24-79, looked up) [reference compound] |  |  | 300 nM |
